Experimental data taken from paper PMC10933263 (EMBO Reports, 2024).
Values belong to the molecule of their own block, whether it stands above or below them.

Assays:
[1] = target: bovine adenylyl cyclase AC8, purified, tag-free (bovine) (UniProt E1BQ12)
[2] = target: bovine adenylyl cyclase AC8, purified, tag-free (bovine) (UniProt E1BQ12); remark: listed apart in the source
[3] = target: bovine adenylyl cyclase AC8, purified, tag-free (bovine, UniProt E1BQ12 1-1253); experiment: cell-based or functional assay

- activation of AC8 adenylyl cyclase activity (cAMP accumulation) by CaM in the absence of CaCl2, EC50 [1]: 86.6 nM
- activation of AC8 adenylyl cyclase activity (cAMP accumulation) by CaM in the presence of CaCl2, EC50 [1]: 4.1 nM
Molecule: Calmodulin (from bovine testes, Sigma-Aldrich P1431) (from UniProt P62157 1-149) (natural protein)

- inhibition of AC8 adenylyl cyclase activity (cAMP accumulation) by Gβγ, IC50 [2]: 0.4 µM
Molecule: G protein beta gamma subunit (Gβ1γ2) (from UniProt P62871 1-340; P63212 1-71) (complex)

- activation of AC8 adenylyl cyclase activity (cAMP accumulation) by GTPγS-bound Gαs, EC50 [3]: 25.5 nM
B1: bovine G protein αs subunit, GTPγS-activated (natural protein, UniProt P04896-1 1-394, looked up)
chain: MGCLGNSKTEDQRNEEKAQREANKKIEKQLQKDKQVYRATHRLLLLGAGESGKSTIVKQMRILHVNGFNGEGGEEDPQAARSNSDGEKATKVQDIKNNLKEAIETIVAAMSNLVPPVELANPENQFRVDYILSVMNVPDFDFPPEFYEHAKALWEDEGVRACYERSNEYQLIDCAQYFLDKIDVIKQDDYVPSDQDLLRCRVLTSGIFETKFQVDKVNFHMFDVGGQRDERRKWIQCFNDVTAIIFVVASSSYNMVIREDNQTNRLQEALNLFKSIWNNRWLRTISVILFLNKQDLLAEKVLAGKSKIEDYFPEFARYTTPEDATPEPGEDPRVTRAKYFIRDEFLRISTASGDGRHYCYPHFTCAVDTENIRRVFNDCRDIIQRMHLRQYELL
